Laboratory results reported in paper PMC10112965, “Characterization of the nuclear import of the human CHD4–NuRD complex” (Journal of Cell Science, 2023).

B1: CHD4-C-Flag, C-terminal Flag-tagged recombinant human CHD4 wild-type (enzyme, UniProt Q14839 1-1912, looked up)
chain: MASGLGSPSPCSAGSEEEDMDALLNNSLPPPHPENEEDPEEDLSETETPKLKKKKKPKKPRDPKIPKSKRQKKERMLLCRQLGDSSGEGPEFVEEEEEVALRSDSEGSDYTPGKKKKKKLGPKKEKKSKSKRKEEEEEEDDDDDSKEPKSSAQLLEDWGMEDIDHVFSEEDYRTLTNYKAFSQFVRPLIAAKNPKIAVSKMMMVLGAKWREFSTNNPFKGSSGASVAAAAAAAVAVVESMVTATEVAPPPPPVEVPIRKAKTKEGKGPNARRKPKGSPRVPDAKKPKPKKVAPLKIKLGGFGSKRKRSSSEDDDLDVESDFDDASINSYSVSDGSTSRSSRSRKKLRTTKKKKKGEEEVTAVDGYETDHQDYCEVCQQGGEIILCDTCPRAYHMVCLDPDMEKAPEGKWSCPHCEKEGIQWEAKEDNSEGEEILEEVGGDLEEEDDHHMEFCRVCKDGGELLCCDTCPSSYHIHCLNPPLPEIPNGEWLCPRCTCPALKGKVQKILIWKWGQPPSPTPVPRPPDADPNTPSPKPLEGRPERQFFVKWQGMSYWHCSWVSELQLELHCQVMFRNYQRKNDMDEPPSGDFGGDEEKSRKRKNKDPKFAEMEERFYRYGIKPEWMMIHRILNHSVDKKGHVHYLIKWRDLPYDQASWESEDVEIQDYDLFKQSYWNHRELMRGEEGRPGKKLKKVKLRKLERPPETPTVDPTVKYERQPEYLDATGGTLHPYQMEGLNWLRFSWAQGTDTILADEMGLGKTVQTAVFLYSLYKEGHSKGPFLVSAPLSTIINWEREFEMWAPDMYVVTYVGDKDSRAIIRENEFSFEDNAIRGGKKASRMKKEASVKFHVLLTSYELITIDMAILGSIDWACLIVDEAHRLKNNQSKFFRVLNGYSLQHKLLLTGTPLQNNLEELFHLLNFLTPERFHNLEGFLEEFADIAKEDQIKKLHDMLGPHMLRRLKADVFKNMPSKTELIVRVELSPMQKKYYKYILTRNFEALNARGGGNQVSLLNVVMDLKKCCNHPYLFPVAAMEAPKMPNGMYDGSALIRASGKLLLLQKMLKNLKEGGHRVLIFSQMTKMLDLLEDFLEHEGYKYERIDGGITGNMRQEAIDRFNAPGAQQFCFLLSTRAGGLGINLATADTVIIYDSDWNPHNDIQAFSRAHRIGQNKKVMIYRFVTRASVEERITQVAKKKMMLTHLVVRPGLGSKTGSMSKQELDDILKFGTEELFKDEATDGGGDNKEGEDSSVIHYDDKAIERLLDRNQDETEDTELQGMNEYLSSFKVAQYVVREEEMGEEEEVEREIIKQEESVDPDYWEKLLRHHYEQQQEDLARNLGKGKRIRKQVNYNDGSQEDRDWQDDQSDNQSDYSVASEEGDEDFDERSEAPRRPSRKGLRNDKDKPLPPLLARVGGNIEVLGFNARQRKAFLNAIMRYGMPPQDAFTTQWLVRDLRGKSEKEFKAYVSLFMRHLCEPGADGAETFADGVPREGLSRQHVLTRIGVMSLIRKKVQEFEHVNGRWSMPELAEVEENKKMSQPGSPSPKTPTPSTPGDTQPNTPAPVPPAEDGIKIEENSLKEEESIEGEKEVKSTAPETAIECTQAPAPASEDEKVVVEPPEGEEKVEKAEVKERTEEPMETEPKGAADVEKVEEKSAIDLTPIVVEDKEEKKEEEEKKEVMLQNGETPKDLNDEKQKKNIKQRFMFNIADGGFTELHSLWQNEERAATVTKKTYEIWHRRHDYWLLAGIINHGYARWQDIQNDPRYAILNEPFKGEMNRGNFLEIKNKFLARRFKLLEQALVIEEQLRRAAYLNMSEDPSHPSMALNTRFAEVECLAESHQHLSKESMAGNKPANAVLHKVLKQLEELLSDMKADVTRLPATIARIPPVAVRLQMSERNILSRLANRAPEPTPQQVAQQQ
notes: human CHD4, chromatin remodeling ATPase of NuRD, UniProt Q14839, 1912 aa; Construct (pDFB6 C-Flag) is described in Hoffmeister et al., 2017; also called hCHD4 wild-type; C-Flag hCHD4; not shown: Flag, C-terminal, kept
B2: CHD4-C-Flag Δ aa 217–360 (enzyme, human, UniProt Q14839 1-1912, looked up)
chain: MASGLGSPSPCSAGSEEEDMDALLNNSLPPPHPENEEDPEEDLSETETPKLKKKKKPKKPRDPKIPKSKRQKKERMLLCRQLGDSSGEGPEFVEEEEEVALRSDSEGSDYTPGKKKKKKLGPKKEKKSKSKRKEEEEEEDDDDDSKEPKSSAQLLEDWGMEDIDHVFSEEDYRTLTNYKAFSQFVRPLIAAKNPKIAVSKMMMVLGAKWREFSTNNAVDGYETDHQDYCEVCQQGGEIILCDTCPRAYHMVCLDPDMEKAPEGKWSCPHCEKEGIQWEAKEDNSEGEEILEEVGGDLEEEDDHHMEFCRVCKDGGELLCCDTCPSSYHIHCLNPPLPEIPNGEWLCPRCTCPALKGKVQKILIWKWGQPPSPTPVPRPPDADPNTPSPKPLEGRPERQFFVKWQGMSYWHCSWVSELQLELHCQVMFRNYQRKNDMDEPPSGDFGGDEEKSRKRKNKDPKFAEMEERFYRYGIKPEWMMIHRILNHSVDKKGHVHYLIKWRDLPYDQASWESEDVEIQDYDLFKQSYWNHRELMRGEEGRPGKKLKKVKLRKLERPPETPTVDPTVKYERQPEYLDATGGTLHPYQMEGLNWLRFSWAQGTDTILADEMGLGKTVQTAVFLYSLYKEGHSKGPFLVSAPLSTIINWEREFEMWAPDMYVVTYVGDKDSRAIIRENEFSFEDNAIRGGKKASRMKKEASVKFHVLLTSYELITIDMAILGSIDWACLIVDEAHRLKNNQSKFFRVLNGYSLQHKLLLTGTPLQNNLEELFHLLNFLTPERFHNLEGFLEEFADIAKEDQIKKLHDMLGPHMLRRLKADVFKNMPSKTELIVRVELSPMQKKYYKYILTRNFEALNARGGGNQVSLLNVVMDLKKCCNHPYLFPVAAMEAPKMPNGMYDGSALIRASGKLLLLQKMLKNLKEGGHRVLIFSQMTKMLDLLEDFLEHEGYKYERIDGGITGNMRQEAIDRFNAPGAQQFCFLLSTRAGGLGINLATADTVIIYDSDWNPHNDIQAFSRAHRIGQNKKVMIYRFVTRASVEERITQVAKKKMMLTHLVVRPGLGSKTGSMSKQELDDILKFGTEELFKDEATDGGGDNKEGEDSSVIHYDDKAIERLLDRNQDETEDTELQGMNEYLSSFKVAQYVVREEEMGEEEEVEREIIKQEESVDPDYWEKLLRHHYEQQQEDLARNLGKGKRIRKQVNYNDGSQEDRDWQDDQSDNQSDYSVASEEGDEDFDERSEAPRRPSRKGLRNDKDKPLPPLLARVGGNIEVLGFNARQRKAFLNAIMRYGMPPQDAFTTQWLVRDLRGKSEKEFKAYVSLFMRHLCEPGADGAETFADGVPREGLSRQHVLTRIGVMSLIRKKVQEFEHVNGRWSMPELAEVEENKKMSQPGSPSPKTPTPSTPGDTQPNTPAPVPPAEDGIKIEENSLKEEESIEGEKEVKSTAPETAIECTQAPAPASEDEKVVVEPPEGEEKVEKAEVKERTEEPMETEPKGAADVEKVEEKSAIDLTPIVVEDKEEKKEEEEKKEVMLQNGETPKDLNDEKQKKNIKQRFMFNIADGGFTELHSLWQNEERAATVTKKTYEIWHRRHDYWLLAGIINHGYARWQDIQNDPRYAILNEPFKGEMNRGNFLEIKNKFLARRFKLLEQALVIEEQLRRAAYLNMSEDPSHPSMALNTRFAEVECLAESHQHLSKESMAGNKPANAVLHKVLKQLEELLSDMKADVTRLPATIARIPPVAVRLQMSERNILSRLANRAPEPTPQQVAQQQ
notes: not shown: Flag, C-terminal, kept

Target: the molecule itself
Experiment: native gel or EMSA; 1 µg protein on a 4–16% NativePAGE gel with G-250 additive, room temperature, 150 V for 2 h, stained with Coomassie and silver

Protein | stoichiometry N
B1 | ≥ 3
B2 | ≥ 3
